Experimental data: article PMC4407285 (Cell Reports, 2015)

T1: Candida glabrata Slx1 (Candida glabrata, UniProt Q6FML9 1-312)
T1 sequence: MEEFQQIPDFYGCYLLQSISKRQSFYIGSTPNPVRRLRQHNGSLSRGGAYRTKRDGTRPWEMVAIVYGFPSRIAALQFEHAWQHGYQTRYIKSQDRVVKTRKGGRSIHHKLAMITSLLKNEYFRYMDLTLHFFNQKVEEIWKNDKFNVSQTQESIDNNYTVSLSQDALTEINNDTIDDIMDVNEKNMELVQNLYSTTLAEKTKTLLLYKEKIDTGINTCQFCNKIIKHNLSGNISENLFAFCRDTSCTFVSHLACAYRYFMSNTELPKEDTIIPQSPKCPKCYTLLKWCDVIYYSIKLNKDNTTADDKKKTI


How the values were obtained:
[1] = molecular target: Candida glabrata Slx1 (Candida glabrata) (UniProt Q6FML9); experiment: SEC-MALS
[2] = molecular target: Candida glabrata Slx1 (Candida glabrata) (UniProt Q6FML9); experiment: AUC
Candida glabrata Slx1 = molecular target: T1, Candida glabrata Slx1; experiment: co-purification

Candida glabrata Slx4 conserved C-terminal domain (domain or fragment), sequence (Q6FJQ6 557-726 limits assumed): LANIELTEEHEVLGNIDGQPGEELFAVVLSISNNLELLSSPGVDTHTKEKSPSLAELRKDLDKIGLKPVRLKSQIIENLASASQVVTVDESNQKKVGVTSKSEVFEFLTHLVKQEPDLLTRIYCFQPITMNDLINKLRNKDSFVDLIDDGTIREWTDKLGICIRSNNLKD

Row | Molecule | stoichiometry N [1] | stoichiometry N [2] | binding result (Candida glabrata Slx1)
1 | Candida glabrata Slx4 conserved C-terminal domain (domain or fragment) | 1 | 1 | 
2 | Candida glabrata Slx4 CCD3 (residues 647-726) (domain or fragment, UniProt Q6FJQ6 647-726, looked up) SNQKKVGVTSKSEVFEFLTHLVKQEPDLLTRIYCFQPITMNDLINKLRNKDSFVDLIDDGTIREWTDKLGICIRSNNLKD |  |  | binds
